Results: the supplement of paper PMC11136658

Test system: peptide library, one residue held at a place counted from the Y acceptor
Assay: relative phosphorylation of the sub-library (ratio to the mean residue at this position); higher = residue favoured
Summary of the method: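 Biotinylated Tyr-centred peptide library mixtures, each fixing one residue at one position from −5 to +5, were incubated with purified recombinant kinases in 384-well plates for 90 min with 50 μM ATP plus γ-32P-ATP. Streptavidin membranes captured the peptides, which were rinsed and quantified by phosphorimaging and ImageQuant. At each position, intensities were divided by the sum of the 18 randomized residues (16 for the Ser/Thr-free library) and multiplied by that number. Each value is phosphorylation relative to the mean randomized residue.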

Sequence of FLT3, construct: aa564-end, human (P36888 564-993, looked up): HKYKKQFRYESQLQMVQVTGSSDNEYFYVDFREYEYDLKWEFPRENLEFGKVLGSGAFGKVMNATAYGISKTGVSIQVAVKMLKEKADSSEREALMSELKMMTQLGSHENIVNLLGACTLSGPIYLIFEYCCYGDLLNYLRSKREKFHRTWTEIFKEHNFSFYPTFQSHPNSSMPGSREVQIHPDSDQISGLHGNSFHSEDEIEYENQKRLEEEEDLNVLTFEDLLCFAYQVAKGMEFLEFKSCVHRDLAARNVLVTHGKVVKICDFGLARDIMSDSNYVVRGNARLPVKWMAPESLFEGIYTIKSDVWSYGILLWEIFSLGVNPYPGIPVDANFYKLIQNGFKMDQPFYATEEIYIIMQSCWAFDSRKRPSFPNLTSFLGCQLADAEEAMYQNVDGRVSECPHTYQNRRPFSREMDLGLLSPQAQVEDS
Sequence of FRK, construct: aa208-end, human (P42685 208-505, looked up): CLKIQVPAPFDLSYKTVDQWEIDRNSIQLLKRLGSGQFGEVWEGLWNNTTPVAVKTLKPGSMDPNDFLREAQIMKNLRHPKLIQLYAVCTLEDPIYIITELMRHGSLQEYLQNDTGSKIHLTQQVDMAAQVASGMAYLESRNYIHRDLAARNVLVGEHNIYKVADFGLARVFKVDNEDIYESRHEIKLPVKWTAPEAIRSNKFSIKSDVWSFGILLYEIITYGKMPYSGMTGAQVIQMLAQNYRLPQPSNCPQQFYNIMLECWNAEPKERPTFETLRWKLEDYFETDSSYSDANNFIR
Sequence of FLT4, construct: aa800-end, human (P35916 800-1363, looked up): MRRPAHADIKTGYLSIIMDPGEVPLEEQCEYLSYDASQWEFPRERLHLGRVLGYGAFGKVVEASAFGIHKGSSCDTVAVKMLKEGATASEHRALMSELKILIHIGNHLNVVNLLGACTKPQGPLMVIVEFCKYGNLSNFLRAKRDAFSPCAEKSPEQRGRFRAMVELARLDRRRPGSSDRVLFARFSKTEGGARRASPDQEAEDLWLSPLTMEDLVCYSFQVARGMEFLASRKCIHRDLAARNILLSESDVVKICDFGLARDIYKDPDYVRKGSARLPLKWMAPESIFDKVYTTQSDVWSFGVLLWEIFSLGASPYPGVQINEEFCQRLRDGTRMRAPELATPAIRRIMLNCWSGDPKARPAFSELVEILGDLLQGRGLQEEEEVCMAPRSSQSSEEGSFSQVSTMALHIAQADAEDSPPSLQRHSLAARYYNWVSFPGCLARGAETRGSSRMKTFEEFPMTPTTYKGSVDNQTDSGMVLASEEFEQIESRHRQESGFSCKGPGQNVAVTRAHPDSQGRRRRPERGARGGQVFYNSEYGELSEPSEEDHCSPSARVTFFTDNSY
Sequence of FLT1, construct: aa748-end, human (P17948 748-1338, looked up): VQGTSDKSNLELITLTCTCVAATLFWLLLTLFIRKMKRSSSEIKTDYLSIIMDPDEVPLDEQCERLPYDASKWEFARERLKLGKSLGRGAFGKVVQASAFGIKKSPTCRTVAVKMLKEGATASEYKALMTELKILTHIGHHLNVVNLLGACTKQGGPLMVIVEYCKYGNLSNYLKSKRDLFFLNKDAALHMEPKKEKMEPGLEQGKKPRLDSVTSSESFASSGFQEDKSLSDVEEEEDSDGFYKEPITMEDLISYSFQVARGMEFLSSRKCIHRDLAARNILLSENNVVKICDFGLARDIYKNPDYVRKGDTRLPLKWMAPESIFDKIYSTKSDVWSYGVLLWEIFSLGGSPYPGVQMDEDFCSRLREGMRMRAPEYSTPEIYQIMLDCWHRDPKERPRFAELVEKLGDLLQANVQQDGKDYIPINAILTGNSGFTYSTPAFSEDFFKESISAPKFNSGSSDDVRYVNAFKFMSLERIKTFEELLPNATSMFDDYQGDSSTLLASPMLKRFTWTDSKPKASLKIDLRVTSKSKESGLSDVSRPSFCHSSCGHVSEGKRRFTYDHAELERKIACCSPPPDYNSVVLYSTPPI

FLT1, construct: aa748-end, human (from UniProt P17948)
relative phosphorylation
Conditions	at +1	at +2	at +3	at +4	at +5	at -1	at -2	at -3	at -4	at -5
A fixed	0.624	0.689	0.604	0.797	0.722	0.496	0.885	0.899	0.91	0.956
D fixed	0.478	1.49	0.636	1.1	1.01	3.57	1.75	1.66	1.4	1.24
E fixed	0.487	0.899	0.582	0.817	0.933	2.46	1.57	1.66	1.38	1.1
F fixed	2.3	1.38	1.99	0.981	1.13	0.92	0.797	1.01	0.956	1.14
G fixed	0.478	0.439	0.633	0.845	0.911	0.446	1.11	1.03	1.1	1.1
H fixed	1.38	1.17	0.7	1.3	1.17	1.18	1.07	1.22	1.12	1.24
I fixed	1.34	0.698	1.46	0.709	0.639	0.948	0.597	0.599	0.653	0.745
K fixed	0.683	1.21	0.625	1.39	1.27	0.432	1.01	0.853	1.01	1.14
L fixed	0.873	0.86	1.63	0.787	0.844	0.639	0.633	0.729	0.693	0.727
M fixed	1	0.867	1.6	0.8	0.786	0.559	0.696	0.73	0.797	0.801
N fixed	0.533	1.19	0.755	1.06	1.11	1.16	1.16	1.17	0.929	0.953
P fixed	0.415	0.574	1.02	1.4	1.28	0.525	1.08	0.781	0.897	1.03
Q fixed	0.957	0.926	0.684	0.88	1.09	0.81	1.14	1.05	1.02	0.936
R fixed	0.875	1.53	0.729	1.46	1.25	0.458	1.13	1.01	1.1	1.11
S fixed	0.67	0.923	0.698	0.968	0.83	0.462	1.14	1.08	0.867	0.982
T fixed	0.987	1.11	0.666	0.83	0.839	0.705	1.04	0.906	0.887	0.891
V fixed	1.94	0.766	1.09	0.681	0.723	0.747	0.655	0.594	0.701	0.763
W fixed	1.63	1.32	1.27	0.985	1.12	0.649	0.724	1.01	1.34	1.02
pThr fixed	0.947	2.03	0.788	1.08	0.963	2.55	1.42	2.05	1.86	1.78
pTyr fixed	2.58	2.77	0.88	0.609	0.679	2.54	2.3	3.12	2.64	1.66

FLT3, construct: aa564-end, human (from UniProt P36888)
relative phosphorylation
Conditions	at +1	at +2	at +3	at +4	at +5	at -1	at -2	at -3	at -4	at -5
A fixed	0.822	0.62	0.639	0.968	0.955	0.749	0.806	0.766	1.05	0.952
D fixed	0.318	0.629	0.321	0.688	0.696	1.49	1.19	1.44	1.33	1.14
E fixed	0.643	0.89	0.227	0.826	0.771	1.2	1.15	1.69	1.56	1.15
F fixed	2.12	1.22	1.72	0.984	1.18	1.12	0.669	0.834	1	0.998
G fixed	0.431	0.368	0.603	0.904	1.19	0.574	0.972	0.786	1.21	1.16
H fixed	1.7	0.78	0.96	1	1.15	1.56	1.1	0.946	0.938	0.976
I fixed	1.6	1.19	1.52	1.05	0.961	1.25	0.954	0.688	0.913	0.871
K fixed	0.705	1.02	0.895	1.2	0.902	0.583	0.843	1	0.874	1.05
L fixed	1.21	1.2	1.3	0.878	1.07	1.18	0.88	0.878	1.02	0.997
M fixed	1.2	1	1.09	1.22	1.18	1.02	0.701	1.03	0.889	0.869
N fixed	0.455	1.1	0.54	0.807	0.864	1.25	1.23	1.46	0.951	1.36
P fixed	0.297	0.685	0.959	0.732	1.18	0.777	1.08	0.719	0.903	0.833
Q fixed	1	0.989	0.665	1.17	0.839	1.11	1.26	1.03	1.21	1.17
R fixed	1.01	1.63	1.6	1.89	1.06	0.639	0.957	1.27	0.924	1.43
S fixed	0.687	0.774	0.689	0.858	0.888	0.579	1.05	0.832	0.656	0.717
T fixed	0.77	0.814	0.706	0.741	1.22	0.778	0.894	0.708	0.614	0.612
V fixed	1.61	1.16	1.65	1.08	0.938	1.4	1.52	0.878	0.808	0.787
W fixed	1.43	1.94	1.91	1	0.961	0.746	0.75	1.04	1.15	0.928
pThr fixed	0.505	0.966	0.209	0.413	0.512	1.02	0.971	1.23	0.887	1.02
pTyr fixed	1.92	1.34	0.334	0.649	0.693	2.37	1.29	1.63	1.43	1.11

FLT4, construct: aa800-end, human (from UniProt P35916)
relative phosphorylation
Conditions	at +1	at +2	at +3	at +4	at +5	at -1	at -2	at -3	at -4	at -5
A fixed	0.654	0.524	0.48	0.749	0.758	0.638	0.879	0.799	0.976	0.878
D fixed	0.367	0.647	0.424	0.913	1.12	2.84	1.25	1.3	1.05	1.04
E fixed	0.448	0.846	0.366	0.895	0.95	1.93	1.3	1.34	1.16	0.956
F fixed	2.19	1.57	3.08	1.07	1.31	1.09	0.748	1.04	1.14	1.12
G fixed	0.351	0.332	0.713	1.01	0.98	0.492	0.949	0.888	0.967	0.956
H fixed	1.08	1.05	0.595	1.33	1.12	1.24	1.16	1.16	1.08	1.27
I fixed	1.69	1.02	1.82	0.723	0.927	1.05	0.825	0.743	0.798	0.898
K fixed	0.643	0.864	0.396	1.16	1.01	0.439	0.921	0.964	0.992	1.08
L fixed	1.06	1.36	2.1	0.856	1.06	0.746	0.887	0.845	0.928	0.853
M fixed	1.02	1.07	1.98	0.98	0.991	0.655	0.962	0.853	0.837	0.953
N fixed	0.534	0.899	0.389	0.868	1.1	1.6	1.2	1.24	0.896	1.08
P fixed	0.571	0.471	0.588	1.17	1.04	0.583	0.945	0.8	0.915	0.822
Q fixed	1.25	0.896	0.59	1.09	0.967	1.15	1.16	1.11	1.08	1.07
R fixed	0.734	1.3	0.554	1.37	1.01	0.507	1.17	1.09	1.14	1.24
S fixed	0.599	0.684	0.506	0.92	0.829	0.657	1.08	1.09	0.843	0.921
T fixed	0.9	0.895	0.72	0.848	0.771	0.792	0.899	1.01	0.74	0.848
V fixed	2.12	0.975	1.4	0.751	0.774	0.892	0.766	0.712	0.844	0.777
W fixed	1.78	2.6	1.3	1.3	1.28	0.706	0.895	1.03	1.61	1.23
pThr fixed	0.737	1.37	0.521	0.8	1.08	1.47	0.969	1.13	1.03	0.981
pTyr fixed	2.51	2.96	0.651	0.9	0.834	3.16	1.24	1.38	1.29	1.06

FRK, construct: aa208-end, human (from UniProt P42685)
relative phosphorylation
Conditions	at +1	at +2	at +3	at +4	at +5	at -1	at -2	at -3	at -4	at -5
A fixed	1.2	0.883	0.702	0.821	1.01	0.594	1.14	0.808	1.11	1.05
D fixed	0.563	0.473	0.24	0.573	0.93	0.836	1.19	1.92	1.14	1.12
E fixed	2.3	0.65	0.193	0.549	0.861	1.92	1.73	2.11	1.84	0.931
F fixed	1.03	1.6	1.95	1.38	1.21	0.878	0.642	0.892	1.03	1.07
G fixed	0.519	0.445	0.589	1.01	0.861	0.34	1.13	1.09	1.27	1.21
H fixed	0.91	0.758	0.741	1.32	1.15	0.777	1.02	0.902	0.913	0.993
I fixed	1.54	1.29	2.29	0.88	0.807	3.11	1.1	0.761	0.923	1.07
K fixed	0.343	0.897	0.475	1.23	1.06	0.27	0.568	0.631	0.719	0.858
L fixed	1.25	1.36	1.56	0.937	1.01	2.46	0.895	0.852	0.993	1.09
M fixed	1.76	0.966	1.3	1.22	0.914	1.13	0.67	0.895	0.929	1.12
N fixed	0.382	1.01	0.568	0.737	0.702	0.573	1.01	1.06	0.888	0.973
P fixed	0.116	0.601	0.87	0.971	1.15	0.452	1.3	1.04	1.1	1.11
Q fixed	1.23	0.748	0.469	0.965	0.974	0.664	1.01	0.838	1.06	0.966
R fixed	0.492	1.11	1.52	1.35	1.2	0.311	0.656	0.674	0.769	0.863
S fixed	0.919	1.09	0.642	0.863	1.01	0.433	1.03	0.938	0.792	0.836
T fixed	0.825	1.17	0.767	0.771	0.853	0.9	0.9	0.882	0.634	0.8
V fixed	1.18	1.21	1.71	0.865	0.934	1.9	1.3	0.778	0.793	0.825
W fixed	1.44	1.73	1.43	1.55	1.36	0.453	0.716	0.929	1.09	1.11
pThr fixed	1.09	1.58	0.217	0.462	0.638	2.06	1.3	1.28	0.91	0.853
pTyr fixed	4.6	2.61	0.782	0.659	0.692	1.06	1.28	1.7	1.57	0.867
